Here are results for nine molecules from patent US20060241051A1 (Takeda / Millennium, published 2006).

Like-named read-outs stand apart in the source and are kept apart here. Square brackets hold non-standard residues; d marks the D form. Ends that are not written are not given here. * marks the point of attachment. 2‑(indol-3-yl)ethylcarbamoyl = O=C(NCCc1c[nH]c2ccccc12)*; Arg(Me) = CNC(=N)NCCC[C@H](N)C(=O)O; d3Pal = N[C@H](Cc1cccnc1)C(=O)O; Cha = N[C@@H](CC1CCCCC1)C(=O)O; azaGly = NNC(=O)O

Usually IC50 stands for the concentration that inhibits the measured activity by half.

In assay [1] the target is T1, human OT7T175 (metastin receptor) (human, UniProt Q969F8 1-398).
T1 construct: expressed on CHO cells (hOT7T175-expressed CHO cells; hOT7T175/CHO); also called hOT7T175; h0T7T175
The assay is described as follows: FMAT competition with Cy-5-labeled metastin (40-54), hOT7T175-expressed CHO cells.

The target in assay [2] is T1, human OT7T175 (metastin receptor). The assay is described as follows: cell-based or functional assay.
The target is the same in assay [3]. The assay is described as follows: cell-based or functional assay. This is another data set of the same source.

T1 sequence (Q969F8 whole entry L364H): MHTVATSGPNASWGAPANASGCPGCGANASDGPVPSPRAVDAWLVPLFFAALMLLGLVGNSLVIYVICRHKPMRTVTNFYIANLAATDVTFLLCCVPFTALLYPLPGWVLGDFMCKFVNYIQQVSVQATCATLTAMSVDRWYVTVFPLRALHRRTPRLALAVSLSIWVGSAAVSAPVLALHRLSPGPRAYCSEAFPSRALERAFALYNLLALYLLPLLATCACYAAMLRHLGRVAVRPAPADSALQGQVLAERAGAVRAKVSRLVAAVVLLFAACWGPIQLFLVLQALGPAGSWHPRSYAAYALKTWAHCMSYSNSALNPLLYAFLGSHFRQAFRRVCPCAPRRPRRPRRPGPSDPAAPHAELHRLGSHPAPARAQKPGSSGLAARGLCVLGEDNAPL

B1: Compound No. 279: des(1-3)-2-(Indol-3-yl)ethylcarbamoyl-[AzaGly7,Arg(Me)9]MS10 (peptide)
peptide: {2‑(indol-3-yl)ethylcarbamoyl}-NSF[azaGly]L[Arg(Me)]F-NH2
SMILES: CNC(=N)NCCC[C@H](NC(=O)[C@H](CC(C)C)NC(=O)NNC(=O)[C@H](Cc1ccccc1)NC(=O)[C@H](CO)NC(=O)[C@H](CC(N)=O)NC(=O)NCCc1c[nH]c2ccccc12)C(=O)N[C@@H](Cc1ccccc1)C(N)=O
Molecule B1 showed an IC50 in assay [1] of 29 nM. In addition, in assay [2], the “intracellular Ca ion level-increasing activity (FLIPR)” value was 5 specific activity to metastin (1-54).

B2: Compound No. 290: [D-Pya(3)1,D-Asn2,Cha3,AzaGly7,Arg(Me)9]MS10 (peptide)
peptide: [d3Pal][dN][Cha]NSF[azaGly]L[Arg(Me)]F-NH2
modifications: N-terminus assumed
SMILES: CNC(=N)NCCC[C@H](NC(=O)[C@H](CC(C)C)NC(=O)NNC(=O)[C@H](Cc1ccccc1)NC(=O)[C@H](CO)NC(=O)[C@H](CC(N)=O)NC(=O)[C@H](CC1CCCCC1)NC(=O)[C@@H](CC(N)=O)NC(=O)[C@H](N)Cc1cccnc1)C(=O)N[C@@H](Cc1ccccc1)C(N)=O
Molecule B2 showed an IC50 in assay [1] of 1.4 nM. Besides, in assay [2], the “intracellular Ca ion level-increasing activity (FLIPR)” value was 1 specific activity to metastin (1-54).
For the molecule YNWNSXGLRF (D-Tyr1; Pya(2)6; Arg(Me)9; C-terminal amide) [Compound No. 281: [D-Tyr1,Pya(2)6,Arg(Me)9]MS10], the half-maximal inhibitory concentration (IC50) in assay [1] was determined as 230 nM. Also, the “intracellular Ca ion level-increasing activity (FLIPR)” value in assay [2] is 0.5 specific activity to metastin (1-54).

B3: Compound No. 204: [D-Tyr1, Ala7, Arg(Me)9]MS10 (peptide)
peptide: [dY]NWNSFAL[Arg(Me)]F-NH2
modifications: N-terminus assumed
SMILES: CNC(=N)NCCC[C@H](NC(=O)[C@H](CC(C)C)NC(=O)[C@H](C)NC(=O)[C@H](Cc1ccccc1)NC(=O)[C@H](CO)NC(=O)[C@H](CC(N)=O)NC(=O)[C@H](Cc1c[nH]c2ccccc12)NC(=O)[C@H](CC(N)=O)NC(=O)[C@H](N)Cc1ccc(O)cc1)C(=O)N[C@@H](Cc1ccccc1)C(N)=O
notes: printed structure is the same as that of Compound No. 173
Regarding B3, the “intracellular Ca ion level-increasing activity (FLIPR)” value in assay [3] was 5 specific activity to metastin (1-54). Moreover, the IC50 in assay [1] was 680 nM.
[dY]NWTSFGL[Arg(Me)]F-NH2 [Compound No. 208: [D-Tyr1,Thr4,Arg(Me)9]MS10]: in assay [3], the “intracellular Ca ion level-increasing activity (FLIPR)” value is 1 specific activity to metastin (1-54). The IC50 in assay [1] worked out at 830 nM.

B4: Compound No. 206: [D-Tyr1,Ile3,Arg(Me)9]MS10 (peptide)
peptide: [dY]NINSFGL[Arg(Me)]F-NH2
modifications: N-terminus assumed
SMILES: CC[C@H](C)[C@H](NC(=O)[C@H](CC(N)=O)NC(=O)[C@H](N)Cc1ccc(O)cc1)C(=O)N[C@@H](CC(N)=O)C(=O)N[C@@H](CO)C(=O)N[C@@H](Cc1ccccc1)C(=O)NCC(=O)N[C@@H](CC(C)C)C(=O)N[C@@H](CCCNC(=N)NC)C(=O)N[C@@H](Cc1ccccc1)C(N)=O
For the molecule B4, the “intracellular Ca ion level-increasing activity (FLIPR)” value in assay [3] was 10 specific activity to metastin (1-54). Further, in assay [1], the IC50 stood at 85 nM.

B5: Compound No. 205: [D-Tyr1,Thr3,Arg(Me)9]MS10 (peptide)
peptide: [dY]NTNSFGL[Arg(Me)]F-NH2
modifications: N-terminus assumed
SMILES: CNC(=N)NCCC[C@H](NC(=O)[C@H](CC(C)C)NC(=O)CNC(=O)[C@H](Cc1ccccc1)NC(=O)[C@H](CO)NC(=O)[C@H](CC(N)=O)NC(=O)[C@@H](NC(=O)[C@H](CC(N)=O)NC(=O)[C@H](N)Cc1ccc(O)cc1)[C@@H](C)O)C(=O)N[C@@H](Cc1ccccc1)C(N)=O
Consider B5, for which the “intracellular Ca ion level-increasing activity (FLIPR)” value in assay [3] is 10 specific activity to metastin (1-54). Moreover, the IC50 in assay [1] came out at 260 nM.

B6: Compound No. 210: [D-Tyr1,Ala4,Arg(Me)9]MS10 (peptide)
peptide: [dY]NWASFGL[Arg(Me)]F-NH2
modifications: N-terminus assumed
SMILES: CNC(=N)NCCC[C@H](NC(=O)[C@H](CC(C)C)NC(=O)CNC(=O)[C@H](Cc1ccccc1)NC(=O)[C@H](CO)NC(=O)[C@H](C)NC(=O)[C@H](Cc1c[nH]c2ccccc12)NC(=O)[C@H](CC(N)=O)NC(=O)[C@H](N)Cc1ccc(O)cc1)C(=O)N[C@@H](Cc1ccccc1)C(N)=O
Regarding B6, in assay [3], the “intracellular Ca ion level-increasing activity (FLIPR)” value was 1 specific activity to metastin (1-54). This molecule came in with an IC50 in assay [1] of 730 nM.
For [dY][dW]NSF[azaGly]L[Arg(Me)]F-NH2 [Compound No. 242: des(1)-[D-Tyr2,D-Trp3,AzaGly7,Arg(Me)9]MS10] the same measures were 2 specific activity to metastin (1-54) and 70 nM.
